Data as given in the DeepSol protein solubility set.

Experiment: soluble on expression in E. coli; label from the status in PepcDB or PDB records

Row | Sequence | soluble on expression in E. coli
1 | MPRVDHGSPQAGPPAPCVGILLAGGQGRRFAAASGGQDKLLARLADGTAVAVRAAAALREATDAVVAVVRPESAVLAALLRGQGCHVLESEQAREGMGASLAAAARFLLAGQVPDMPERADVCLVALADMPWVRRDTLSAVRAAACADGITVPVHQGRRGHPVAFGRSLWGELAALRGDVGARELLRRHRVAAVEVDDPGVAADVDTPGDLAGDRALEHHHHHH | not soluble
2 | MGHHHHHHSHMNKDLLRRVLVLMNSKHTFLALCALRFMRRIIGLKDEFYNRYITKGNLFEPVINALLDNGTRYNLLNSAVIELFEFIRVEDIKSLTAHIVENFYKALESIEYVQTFKGLKTKYEQEKDRQNQKLNSVPSILRSNRFRRDAKALEEDEEMWFNEDEEEEGKAVVAPVEKPKPEDDFPDNYEKFMETKKAKESEDKENLPKRTSPGGFKFTFSHSASAANGTNSKSVVAQIPPATSNGSSSKTTNLPTSVTATKGSLVGLVDYPDDEEEDEEEESSPRKRPRLGS | not soluble
3 | MNLIDYKARERGIEVEMPDERGTSSSCSVCGHEDEDSRVERGLWKCDCCGIVAHGDVNGADNIRQKTLPVTPPLGGSGNGCLAQPCVIQFSRTRGFQPRAPAELEHHHHHH | soluble
4 | MGSDKIHHHHHHMKSVQDRLSQTTNPSPKSYQQLYQEIVSDPEVAAFIKKEGLTQQEITLSISKFLEYISQRDLFVKQDEAYIAKGYQPVLVMNEGYADVSYLETEELVEYRRLEAIKNRIQLINMPASLKNVTVADIDKSDENRVEVMLAIADFVKRFEEKPKGLYIYGNFGIGKSYLMAYLANLLSKTHLQSTTMLHYPTFVVDIKNAIKDGSVKERIDEIKMAQVLVLDDIGAEQHSPWVRDDVLQVILQYRMQENLPTFFTSNFSFDDLERHFASGKSGDETWQAKRVMERIRYLARDLHLKGNNRR | not soluble
5 | MGSSHHHHHHGKTIFVIVPTNEEQVAFLEALAKQDELNFDWQNPPTEPGQPVVILIPSDMVEWFLEMLKAKGIPFTVYVEEGGSENLYFQGGGGGGWPTEDPNELLKSQVWQKYHNQLNERKEYADKLLQDSNYIHRKNNPGE | soluble
6 | MGSDKIHHHHHHMENFVRNSKLNIEKEIKRIEQQPIALLERIKQIIDVIQTSLTLLKRAVAEYQFQNPEEEIQFFKVWKPQISGLLMFYIRLYQIEKNRVGKSLSAQCKYLKMELENIQKSFLNNSFYDYYRAGQTELDNQYFIRENYDILSDVHCHLLDRDSSFTTLHDSSVAMILANSHLIEYVSDEIDSLSDKLHLKFTSIVDSKLLQWTDSKVALVEFIYAIYAGKCFNNGNTSLKDIAFCCEILFNIEIGDFYRIFLEIRNRKKSRTQFLDKLKDKIQKMMEELDR | not soluble
7 | MSSISSSSSNVRMDRRFDWVGPPDNLSKIRKIMLRRVDNESELERQYRLAREELNQWNSDFWAEHNQLFDRQKSDFVERKQQELGRLEHVSANELSEFYRDFLNDRHVAMMAYNKEWYRRNLQLIWPALKVNVVRFFRMARR | not soluble
8 | MDWEKVGLKMGLEIHQQLDTESKLFCPCRTELTDSEPDHDIVRNLRPTQSELGKFDRAAFEEAMRKLHFHYENYHEETCLVEADEEPPHPLNPEALEIAVTIALLLNMRVVDEFHTMRKQVIDGSNTGGFQRTGLVATDGHLETPQGTVKIENLCLEEDAARRIRETGDGVVFRLDRLGIPLVEITTDPSMSDPQQLREVAYQIGQILRSTRVKRGLGTIRQDLNISIRDGARVEVKGVQDLDLIPEIVEREVKRQLSLVEIRDTLQERGAVVEDKIFDVSEVFADTESRIISSAESVLAVKLRGFDGLIGVEIQPGRRLGTEMADYAKKRGVSGIFHTDELPAYGITEEEVRGLRDAVGASQGDAVVMVAHERVTAENALREVIRRAEMAIQGVPEETRKALPDGNTQYLRPLPTSSRMYLETDIPLFRIEDDLLEGIRRNLPELPSEKKERIMRDYGLSEDLASQLVKRNLVDEFEALTEFRVDTTVIASLLAYTLRELRREGHDVDGLGLDELRDAIKLLEVGKISKDALRDIVACMADEGLAAEDAARKLNLLLLAEDEIESIIQEIVEGNLDMISERGMGAMGPLMGQAMGRLRGRADGKVVNRILREKIQERL | soluble
9 | SMDTNADIYDQTASTFFPNGEAMWKKMVEDLKKAEKFIFLEYYIIEEGLMWNRILDILEQKVAQGVEVKMLYDDIGCMATLTGDYAHRLRQLGIEAHKFNKVIPRLTVAYNNRDHRKILIVDGQIAYTGGVNLADEYINHVERFGYWKDSGIRLDGLAVKALTRLFLTTWYINRGEISDFDQYH | not soluble
10 | GVNPRGLGPLQIWQTDFTLEPRMAPRSWLAVTVDTASSAIVVTQHGRVTSVAVQHHWATAIAVLGRPKAIKTDNGSCFTSKSTREWLARWGIAHTTGIPGNSQGQAMVERANRLLKDRIRVLAEGDGFMKRIPTSKQGELLAKAMYALNHKERGENTKTPIQKHWRPTVLTEGPPVKIRIETGEWEKGWNVLVWGRGYAAVKNRDTDKVIWVPSRKVKPDITQKDEVTKKDEASPLFA | soluble
11 | MGSDKIHHHHHHMSSDPTSGAAITVEGLKKVFRIYERPRDRILQLILPGKRKFYREFQALDDVSFTVQKGQAVGIIGRNGSGKSTLLQMICGILHPTAGKVSCSGRVAALLELGAGFNPDFTGRENVYMNATLLGLTTAAVDERMDDILAFAEIGDFIDHPVKTYSSGMFVRLAFAVMAHVDAEILIIDEALAVGDAAFGQKCMRFLRRFRETGTILFVSHDTAAVIGLCDRAVWLDRGKMIIEGDAKTVCEAYYGHLFGGTVETPPEKTVEAITPSPAPEGPRPKVRAEDWVDGRREWINHSSLRNDIEVFTFDPSGTDFGAGGAEIEDVRLTDDDGHPYAWIVGGEPTRLRVTVRVRDELRSPIIGFFVKDRLGQTLFGDNTFMNEKKLSKPALPGQILEANFRFPMPILPPGTYSIAVAVADGTQTDHVQHHWLHDAVMVKSHVSHATAGLVGIPMFEVRFECHDPVASPSSSMDKVGIVD | not soluble
12 | MLMIKVVCGKKGSGKTRALVDSANSFVSTALGDAVFIDGSSQLMCDLHHKVRFINVSEFPIDISSSCTFLGFLCGIISSNFDVKWVYMDDLIRIVRKPPHEMKELFDGFNELSEKFNVDFYVSIEGDPDSMPDFIKVCY | not soluble
13 | MKRLIICNGNKLTVCTQAISSGGIVEKYTPIFSLTKESDNELTLELSGVARGYYIIPSELTSSQARAAHLITLLTRAEESQTTDMHKILNSFVSGKITSGSMFNFENDGSFKREPEEAYNLINKI | not soluble
14 | MSINTSGKITSATERADSADFRTIIRNKIPLMDVRAPVEFGKGAFDLSINYPLMNNDERADVGICYKQNGQEAAIKLGNALVSGQSKARRLTQWQTFARENPQGYLYCFRGGLRSQTVQRWLKESGINYPLITGGYKALRQFLLNELEQLALHPLTILAGNTGSGKTPFLAHCANSLDLEGAAGHRGSSFGSFVTPQSNQINFENKLAEQYIRGDFSLEQRLVLEDEGRLIGSVHLPESLRNAMTLAPLVVIEESLEYRLEQIYQEYIIKMTAQYQAAYGVEQGFTAFSEYLEHGLFKVRKRLGTQRYGQLKEIQSTALTQQNKGQPQYHLDWLKPLLSEYYDPMYQYQLGLKSDRVIFRGNNSECLAFLRD | not soluble
15 | MASNDPGNEVSSYSPTSPSYVKFFTQSNLEKLPKYKEKKAASAKQTAPNNSNGGSEEEITCALDYLIPPPMPKNQQYRAFGSIW | soluble
16 | MKTYEVGALLEAANQRDTKKVKEILQDTTYQVDEVDTEGNTPLNIAVHNNDIEIAKALIDRGADINLQNSISDSPYLYAGAQGRTEILAYMLKHATPDLNKHNRYGGNALIPAAEKGHIDNVKLLLEDGREDIDFQNDFGYTALIEAVGLREGNQLYQDIVKLLMENGADQSIKDNSGRTAMDYANQKGYTEISKILAQYN | soluble
17 | MSLSKNWLFLGKGFRWRPSHTQKLHQIKQVKNEKFMQRSYCYQLTRRFCQSHEHTKLAKWLNINSKLNPFRPDPPVGGSPFLHGVGDEDKPVYIPQDVRVGHTFVVGTTRVGKTRLASILINQDIRNGDAVIVVDPKGDQDLVRDMVAACKVSGRTEDFKIVHLGFPEQSAQYNPLKKFDQISEVATRITDAISAEGEGKQFAAFAWKYVNIVAICLEEMNQPITYQTIAFYISRLEQLLMSYADNILPNHYLNYHQEIDDIIEEHDSKIGKNNKTKSPMERHQAVIQYIKDHINKTIKSNNAEALHDQILIDLYDAAIMDKHYYDKITASVGPVLSEINKSNASKILSSKAQPGDIELMDVIKNKKVLYIGLDSLTNPNIAQAVGKAFLSDLVSTAGKIYKEPNARYTLNLHCDELSEIIQDSFVKILNKAGGAGFQVTAYAQTIQDMEVALGSRAKAEVSEGNFNTLIMLRVKNEETANLLVKVLPQVGVVGHTQVSMVNDTPHGDDGVYFNTTNEDRVQTSNAPMIGVDDIISLPKGQAFVLASGGEIWKIRIPLPMNSNEGHHHHHH | not soluble
18 | MFIKGVILSSYGVNGYARVKSISNNFCDFINLKNNKVLLKKSNSSSVEVKVVDVNIKGNSLFLKFEEIDTPEAVRPLIGFELWVDDSLASSLKEGEYYLGKLIGYAIVNNNKKLGEVVAFFEYLNSVFLEVRVGIKFFFIPFLSIYIGDINTQEKTIELKVLDLLKLEHHHHHH | not soluble
19 | SSDANLDSSKKNFLEGEVDDEESVILTLVPVKDDANMEQMEPSVSSTSDVKLEKPKKYNPGHLLQTNEQFTAPQKARCKIPALPLPTILPPINKVCRDTLRDWCQQLGLSTNGKKIEVYLRLHRHAYPEQRQDMPEMSQETRLQRCSRKRKAVTKRARLQSSYEMNERAEETNTVEVITSAPGAMLASWARIAARAVQPKALNSCSIPVSVEAFLMQASGVGWCVVHGRLLSADTKGWVRLQFHAGQAWVPTTHRRMISLFLLPACIFPSPGIEDNMLCPDCAKRNKKMMKRLMTVEK | soluble
20 | SPAPVQDPHLIKVTVKTPKDKEDFSVTDTCTIQQLKEEISQRFKAHPDQLVLIFAGKILKDPDSLAQCGVRDGLTVHLVIKRQHRAMGNECPA | soluble
21 | MLKVFADRGGTFTDIVAVTHNQEIIERLSKSTERFLIVPLPNQEWIIVYKLLSENPEQYQDAVIQGIRDIIGLSRNEPISDEAIEVVKMGTTVATNALLERKGDRVVLLITTGFKDALRIGYQNRPNIFAQRIVLPTMLYEQVIEVEERYDAQGNELTPVNIAQVKEDLQAVYHTGIRSCAIILMHSDRYPIHEQQVAQIAQEIG | not soluble
22 | VKKNVSGEPYVEGSGSNDVRTGAPIDEIDRILLDQLSRDARTPNNALAALAGIAPSTCLGRVRSLIDRGVIRGFHADIDPATLGRDLQAMIAVRVQANARQHLGQLAEQLATLDEVLNVYFIAGADDYLIHVATASSEELRRFVLDHLSAHPAVASTETILIFEHVRPRHRAPRTEQSSGR | soluble
23 | MSQSEEQNKDIPSSSNFGNPANNGVNVPDAPARRLFDNTSDESDVSLDNDDKTGAETDGSSSSRGCLKSERSRKDHASTSSTRTVRAPQQVSWSFGAKPATPHSQPPAGLKKVPAYSATSSSSQAGPSASTSTARKSSLVGGRGSASSSGHTSPSPSESPARNAGCSSSGESNPDRSLTTPPLAPALKHSAKDGHYRGQRSMSLGGPAHEMLMSQLGGRQGNTVDCSPGEGDKVCLLVDQTRFLVSQRLLTSKPDTMLGRMFSMRASCGDLGADLVSPNERDEFEVADGMTSSCFRAILDYYQSGTMRCPSSVSVSELREACDYLLVPFNAQTVKCQNLHALLHELSNEGAREQFSQFLEEIILPQLVASTEHGERECHLVVLLDDDVVDWDDEYPPQMGEETTHVVYSTHLYKFFKYAENRDCAKQVLKERGLKKIRLGMEGYPTHKEKIKKRFNKAEVIYNYVQRPFVHCSWEKEEARSRHVDFACPIVKSKSNPSLAAAASDPLPQPAPLQQQHRVAVFGEAAPLAAHNRVDDQHFVQPLNQLMQQQAQLPQNNAMLGVNVQQQQHNHPLHSPPVNFQRNDREEE | soluble
